Laboratory results published in patent US20240425572A1 (REGENXBIO, published 2024).

Molecular target: T1, fragment of the LEM peptide having the amino acid sequence of LEMPSSLMLEVP (SEQ ID NO: 2)
T1 peptide: LEMPSSLMLEVP
Test: MSD binding assay (format for the fragment not detailed)
Description: LEM peptide specific rabbit polyclonal and monoclonal antibodies were produced using standard laboratory technologies. Binding affinity of the antibodies was assessed using MSD experiment performed according to the manufacturer's protocols. MSD plates were coated with 1 mg/ml of peptide in PBS and blocked with casein in PBS. Anti-rabbit sulfo-tagged antibody was used as the detection agent. Antibody binding specificity was assessed using control reactions that included the target peptide to inhibit binding. […] None of the antibodies tested can bind to a fragment of the LEM peptide having the amino acid sequence of […] (SEQ ID NO: 2).

- binding result: no binding
B1: 130D2-1 (antibody, V domains shown)
VH: QSLAESGGRLVTPGTPLTLTCTVSGVDLSYYPMTWVRQAPGKGLEYIGIILHNGTSCYARWARGRFTISKTSTTVELRITSPTTEDTATYFCARASVASIVGSSDIWGPGTLVTVSS
VL: LVLTQTPSSVSAAVGGTVTINCQSSQSVYKNSALSWYQQKPGQPPKLLIYGASTLASGVPSRFSGNGSGTQFTLTISGVQCADAATYYCTGAINDEIHAFGGGTEVVVR
notes: Rabbit monoclonal IgG; also called 130D2-1 monoclonal anti-LEM antibody; anti-LEM mAb
